From the DeepSol protein solubility set

Experiment: soluble on expression in E. coli; label from the status in PepcDB or PDB records

Row | Sequence | soluble on expression in E. coli
1 | MGSSHHHHHHGGTGENLYFQGGSGTAPPGSPAFCPPPAQYQYAYVPAASYVAASSCVGRGNNGGPLPYPLQPEAAPGYGEEQTSLLWNTRLFGLSTDVPSAMDSVMCIYCISSTHFNYLYRQQRGMFDPITAALLCFDVFWCMQLWPVVTPLSSITLHTLITRRELRKRYGLVGNDLFVKMDRLNADTAAATEAGETGAQAEEATTAEVESQPHRARDSDVTAEAAAAEPAGTGEAAAEVISVTPPATAPSEAAAPRTGESDVMAHTPRRVCHGLRS | not soluble
2 | MGSSHHHHHHGKTIFVIVPTNEEQVAFLEALAKQDELNFDWQNPPTEPGQPVVILIPSDMVEWFLEMLKAKGIPFTVYVEEGGSENLYFQGGGGGGWPTEDPNELLKSQVWQKYHNQLNERKEYADKLLQDSNYIHRKNNPGE | soluble
3 | MGSSHHHHHHSSGLVPRGSHMAAPIRFFELNTGAKLPCVGLGTYAMVATAIEQAIKIGYRHIDCASIYGNEKEIGGVLKKLIGDGFVKREELFITSKLWSNDHLPEDVPKALEKTLQDLQIDYVDLYLIHWPASLKKESLMPTPEMLTKPDITSTWKAMEALYDSGKARAIGVSNFSSKKLTDLLNVARVTPAVNQVECHPVWQQQGLHELCKSKGVHLSGYSPLGSQSKGEVRLKVLQNPIVTEVAEKLGKTTAQVALRWGLQTGHSVLPKSSSGARLKENLDVFDWSIPEDLFTKFSNIPQEKFCRATEFAHETHGFYKTIEELWDGEI | soluble
4 | MGSSHHHHHHSSGLVPRGSHMASMTGGQQMGRGSMTTHLQAKATLHNGVEMPWFGLGVFQVEEGSELVNAVKTAIVHGYRSIDTAAIYGNEAGVGEGIREGIEEAGISREDLFITSKVWNADLGYEETLAAFETSLSKLGLDYLDLYLIHWPVEGKYKEAWRALETLYKEGRIKAIGVSNFQIHHLEDLMTAAEIKPMINQVEFHPRLTQKELIRYCQNQGIQMEAWSPLMQGQLLDHPVLADIAQTYNKSVAQIILRWDLQHGIITIPKSTKEHRIKENASVFDFELTQDDMNRIDALNENLRVGPDPDNFDF | soluble
5 | MGSSHHHHHHSSGLVPRGSHMASMYTVGDYLLDRLHELGIEEIFGVPGDYNLQFLDQIISREDMKWIGNANELNASYMADGYARTKKAAAFLTTFGVGELSAINGLAGSYAENLPVVEIVGSPTSKVQNDGKFVHHTLADGDFKHFMKMHEPVTAARTLLTAENATYEIDRVLSQLLKERKPVYINLPVDVAAAKAEKPALSLEKESSTTNTTEQVILSKIEESLKNAQKPVVIAGHEVISFGLEKTVTQFVSETKLPITTLNFGKSAVDESLPSFLGIYNGKLSEISLKNFVESADFILMLGVKLTDSSTGAFTHHLDENKMISLNIDEGIIFNKVVEDFDFRAVVSSLSELKGIEYEGQYIDKQYEEFIPSSAPLSQDRLWQAVESLTQSNETIVAEQGTSFFGASTIFLKSNSRFIGQPLWGSIGYTFPAALGSQIADKESRHLLFIGDGSLQLTVQELGLSIREKLNPICFIINNDGYTVEREIHGPTQSYNDIPMWNYSKLPETFGATEDRVVSKIVRTENEFVSVMKEAQADVNRMYWIELVLEKEDAPKLLKKMGKLFAEQNK | soluble
6 | MGSSHHHHHHSSGLVPRGSHMGHGSRLPYGEEVINGIADIYRQEADHPVAVGFMNMSRPSIPEAINELAAMGVEKIIVTPVFLAHGVHTKHDIPHILGLDNGAEGHHHHEHEHEHEEFEFDGEIVYTEPLGADPRIAEIIRDRVKSAI | soluble
7 | MGSSHHHHHHSSGLVPRGSHMIVREGSAEILVPEVYHGPGKRGTGFYNADQKINRDITIEFIKKMGIRNVLDGFGGTGIRGIRISKETDSAVTISEVSPDSYRLIRDNVERNGSQASVINDSFECVLQHGAYEYVDVDPYGSPVPYLDAALMGVKRNGFLGVTATDQSALTGSVPHKTRIRYDALIKNDTFRHEMGIRLLIGYMAKRAASLGRFIDPLISIWHGHYYRVFVRVRKGFEGAGRMMQNLGYVNKHNLLSGIYQDMDEGPVWKGNLQDNAVAEAVLASAGHKAFNPEENRLLFCDLTDIARARHTSLPDIESVIDALSSSGHAASRTMFSPTGIKTDASCDLVESLMMDTLHRRSPA | soluble
